Data reported in article PMC2213610 (The Journal of Cell Biology, 2008).
Residue numbers refer to the chain shown, from its start.

What was measured:
GST-SPCN_SH3 [1] = target: T1, GST-SPCN_SH3 (UniProt Q13813 970-1025); test: peptide or protein array
GST-SPCN_SH3 [2] = target: T1, GST-SPCN_SH3; test: pull-down

B1: VASP peptide F8 with G181 changed to alanine (peptide)
peptide: PPPPGPPPPPAPPPP
GST-SPCN_SH3 [1]
  binding result: binds

B2: VASP peptide F2 (peptide)
peptide: PPAGGPPPPPGPPPP
GST-SPCN_SH3 [1]
  binding result: binds

B3: VASP peptide F8 with P184 changed to alanine (peptide)
peptide: PPPPGPPPPPGPPAP
GST-SPCN_SH3 [1]
  binding result: binds

B4: VASP peptide F8 (peptide)
peptide: PPPPGPPPPPGPPPP
GST-SPCN_SH3 [1]
  binding result: binds

B5: VASP peptide F8 with P172 changed to alanine (peptide)
peptide: PAPPGPPPPPGPPPP
GST-SPCN_SH3 [1]
  binding result: binds

B6: His6-VASP-AAA (natural protein)
chain: MSETVICSSRATVMLYDDGNKRWLPAGTGPQAFSRVQIYHNPTANSFRVVGRKMQPDQQVVINCAIVRGVKYNQATPNFHQWRDARQVWGLNFGSKEDAAQFAAGMASALEALEGGGPPPPPALPTWSVPNGPSPEEVEQQKRQQPGPSEHIERRVANAGGPPAPPAGGPPPPPGPPPPPGPPPPPGLPPSGVPAAAHGAGGGPPPAPPLPAAQGPGGGGAGAPGLAAAIAGAKLRKVAKQEEASGGPTAPKAESGRSGGGGLMEEMNAMLARRRKAAQVGEKTPKDESANQEEPEARVPAQSESVRRPWEKNSTTLPRMKSSSSVTTSETQPCTPSSSDYSDLQRVKQELLEEVKKELQKVKEEIIEAFVQELRKRGSP
GST-SPCN_SH3 [2]
  binding result: binds

B7: His6-VASP-AAE, purified recombinant (natural protein)
chain: B6 chain with A278E
GST-SPCN_SH3 [2]
  binding result: binds

B8: His6-VASP-ADA, purified recombinant (natural protein)
chain: B6 chain with A239D
GST-SPCN_SH3 [2]
  binding result: binds

B9: VASP peptide F8 with G175 changed to alanine (peptide)
peptide: PPPPAPPPPPGPPPP
GST-SPCN_SH3 [1]
  binding result: binds

B10: VASP peptide F8 with P183 changed to alanine (peptide)
peptide: PPPPGPPPPPGPAPP
GST-SPCN_SH3 [1]
  binding result: binds

B11: VASP peptide F8 with P182 changed to alanine (peptide)
peptide: PPPPGPPPPPGAPPP
GST-SPCN_SH3 [1]
  binding result: binds

B12: VASP peptide F8 with P185 changed to alanine (peptide)
peptide: PPPPGPPPPPGPPPA
GST-SPCN_SH3 [1]
  binding result: binds

B13: VASP peptide F8 with P173 changed to alanine (peptide)
peptide: PPAPGPPPPPGPPPP
GST-SPCN_SH3 [1]
  binding result: binds

B14: VASP peptide F8 with P171 changed to alanine (peptide)
peptide: APPPGPPPPPGPPPP
GST-SPCN_SH3 [1]
  binding result: binds

B15: VASP peptide F8 with P174 changed to alanine (peptide)
peptide: PPPAGPPPPPGPPPP
GST-SPCN_SH3 [1]
  binding result: binds
